Target: the molecule itself
Test: SEC; Nesprin-2-SMC released from GST by thrombin, on a Sephadex G-200 gel filtration column; markers ovalbumin 43 kDa, conalbumin 75 kDa, aldolase 158 kDa; fractions also checked by SDS-PAGE

B1: Nesprin-2-SMC (domain or fragment, human, UniProt Q8WXH0 1436-1766, looked up)
chain: NNELLKNIQDVQSQISKIGLKDPTVPAVKHRKKSLIRLDKVLDEYEEEKRHLQEMANSLPHFKDGREKTVNQQCQNTVVLWENTKALVTECLEQCGRVLELLKQYQNFKSILTTLIQKEESVISLQASYMGKENLKKRIAEIEIVKEEFNEHLEVVDKINQVCKNLQFYLNKMKTFEEPPFEKEANIIVDRWLDINEKTEDYYENLGRALALWDKLFNLKNVIDEWTEKALQKMELHQLTEEDRERLKEELQVHEQKTSEFSRRVAEIQFLLQSSEIPLELQVMESSILNKMEHVQKCLTGESNCHALSGSTAELREDLDQAKTQIGMTES
notes: Nesprin-2, human, SMC domain, aa 1436-1766, spectrin repeats 11-13; Calculated molecular weight 38.78 kDa (39 kDa); also called Nesprin-2-SMC domain; SMC polypeptide; source: E. coli XL-1 blue, purified (Glutathione-Sepharose 4B, released from GST by thrombin cleavage); not shown: GST, N-terminal, cleaved
  binding result: binds

Reference: paper PMC5763115, “Nesprin-2 Interacts with Condensin Component SMC2” (International Journal of Cell Biology, 2017)
